# ± gives the standard deviation of the averaged measurements.
# Assay: total protein half-life in vivo (active degradation + dilution); higher = more stable protein
# [1] = E. coli NCM3722 delta-clpP delta-lon delta-hslV, growth: N-lim chemostat, doubling time 6 h
# [2] = E. coli NCM3722 delta-clpP, growth: N-lim chemostat, doubling time 6 h
# [3] = E. coli NCM3722 delta-hslV, growth: N-lim chemostat, doubling time 6 h
# [4] = E. coli NCM3722 delta-lon, growth: N-lim chemostat, doubling time 6 h
# [5] = E. coli NCM3722 delta-smpB, growth: N-lim chemostat, doubling time 6 h
# [6] = wild type E. coli NCM3722, growth: C-lim chemostat, doubling time 3 h
# [7] = wild type E. coli NCM3722, growth: C-lim chemostat, doubling time 6 h
# [8] = wild type E. coli NCM3722, growth: C-lim chemostat, doubling time 12 h
# [9] = wild type E. coli NCM3722, growth: N-lim chemostat, doubling time 6 h
# [10] = wild type E. coli NCM3722, growth: N-lim chemostat, doubling time 12 h
# [11] = wild type E. coli NCM3722, growth: P-lim chemostat, doubling time 6 h
# [12] = wild type E. coli NCM3722, growth: P-lim chemostat, doubling time 12 h
Sequence,total protein half-life in vivo [1] [h],total protein half-life in vivo [2] [h],total protein half-life in vivo [3] [h],total protein half-life in vivo [4] [h],total protein half-life in vivo [5] [h],total protein half-life in vivo [6] [h],total protein half-life in vivo [7] [h],total protein half-life in vivo [8] [h],total protein half-life in vivo [9] [h],total protein half-life in vivo [10] [h],total protein half-life in vivo [11] [h],total protein half-life in vivo [12] [h]
MLVSSNVTMQFGSKPLFENISVKFGGGNRYGLIGANGSGKSTFMKILGGDLEPTLGNVSLDPNERIGKLRQDQFAFEEFTVLDTVIMGHKELWEVKQERDRIYALPEMSEEDGYKVADLEVKYGEMDGYSAEARAGELLLGVGIPVEQHYGPMSEVAPGWKLRVLLAQALFADPDILLLDEPTNNLDIDTIRWLEQVLNERDSTMIIISHDRHFLNMVCTHMADLDYGELRVYPGNYDEYMTAATQARERLLADNAKKKAQIAELQSFVSRFSANASKSRQATSRARQIDKIKLEEVKASSRQNPFIRFEQDKKLFRNALEVEGLTKGFDNGPLFKNLNLLLEVGEKLAVLGTNGVGKSTLLKTLVGDLQPDSGTVKWSENARIGYYAQDHEYEFENDLTVFEWMSQWKQEGDDEQAVRSILGRLLFSQDDIKKPAKVLSGGEKGRMLFGKLMMQKPNILIMDEPTNHLDMESIESLNMALELYQGTLIFVSHDREFVSSLATRILEITPERVIDFSGNYEDYLRSKGIE [P0A9U3],5.14 ± 0.66,4.36 ± 0.29,4.35 ± 0.22,4.4 ± 0.35,4.27 ± 0.19,2.9 ± 0.28,5.571 ± 0.029,10.1 ± 0.12,4.218 ± 0.03,6.54 ± 0.14,5.08 ± 0.85,8.98 ± 1.4
MLVVELIIVLLAIFLGARLGGIGIGFAGGLGVLVLAAIGVKPGNIPFDVISIIMAVIAAISAMQVAGGLDYLVHQTEKLLRRNPKYITILAPIVTYFLTIFAGTGNISLATLPVIAEVAKEQGVKPCRPLSTAVVSAQIAITASPISAAVVYMSSVMEGHGISYLHLLSVVIPSTLLAVLVMSFLVTMLFNSKLSDDPIYRKRLEEGLVELRGEKQIEIKSGAKTSVWLFLLGVVGVVIYAIINSPSMGLVEKPLMNTTNAILIIMLSVATLTTVICKVDTDNILNSSTFKAGMSACICILGVAWLGDTFVSNNIDWIKDTAGEVIQGHPWLLAVIFFFASALLYSQAATAKALMPMALALNVSPLTAVASFAAVSGLFILPTYPTLVAAVQMDDTGTTRIGKFVFNHPFFIPGTLGVALAVCFGFVLGSFML [P0ABN5],5.71,6.38 ± 0.28,,,5.933 ± 0.026,> 4,6.25,,,,6.8 ± 0.54,12.4 ± 0.89
MLVYWLDIVGTAVFAISGVLLAGKLRMDPFGVLVLGVVTAVGGGTIRDMALDHGPVFWVKDPTDLVVAMVTSMLTIVLVRQPRRLPKWMLPVLDAVGLAVFVGIGVNKAFNAEAGPLIAVCMGVITGVGGGIIRDVLAREIPMILRTEIYATACIIGGIVHATAYYTFSVPLETASMMGMVVTLLIRLAAIRWHLKLPTFALDENGR [P0AFP0],6.04,5.6,,,,2.95,,9.77,,,,
MLYGFSGVILQGALVTLELAISSVVLAVIIGLIGAGGKLSQNRLSGLIFEGYTTLIRGVPDLVLMLLIFYGLQIALNTVTEAMGVGQIDIDPMVAGIITLGFIYGAYFTETFRGAFMAVPKGHIEAATAFGFTRGQVFRRIMFPSMMRYALPGIGNNWQVILKSTALVSLLGLEDVVKATQLAGKSTWEPFYFAIVCGVIYLVFTTVSNGVLLFLERRYSVGVKRADL,5.69 ± 0.1,6.04 ± 0.29,,6.66 ± 0.46,5.85 ± 0.34,3.09 ± 0.16,5.6235 ± 0.0025,11.5 ± 2.1,6.17 ± 0.47,12.8 ± 2.3,5.65 ± 0.36,11.2 ± 2.3
MLYIDKATILKFDLEMLKKHRRAIQFIAVLLFIVGLLCISFPFVSGDILSTVVGALLICSGIALIVGLFSNRSHNFWPVLSGFLVAVAYLLIGYFFIRAPELGIFAIAAFIAGLFCVAGVIRLMSWYRQRSMKGSWLQLVIGVLDIVIAWIFLGATPMVSVTLVSTLVGIELIFSAASLFSFASLFVKQQ [P0AET5],5.35 ± 0.17,5.39 ± 0.49,5.44 ± 0.84,5.08 ± 0.17,6.6 ± 0.066,2.2,,> 16,5.33 ± 0.29,10.1,5.5 ± 0.65,10.1 ± 1.1
MLYKGDTLYLDWLEDGIAELVFDAPGSVNKLDTATVASLGEAIGVLEQQSDLKGLLLRSNKAAFIVGADITEFLSLFLVPEEQLSQWLHFANSVFNRLEDLPVPTIAAVNGYALGGGCECVLATDYRLATPDLRIGLPETKLGIMPGFGGSVRMPRMLGADSALEIIAAGKDVGADQALKIGLVDGVVKAEKLVEGAKAVLRQAINGDLDWKAKRQPKLEPLKLSKIEATMSFTIAKGMVAQTAGKHYPAPITAVKTIEAAARFGREEALNLENKSFVPLAHTNEARALVGIFLNDQYVKGKAKKLTKDVETPKQAAVLGAGIMGGGIAYQSAWKGVPVVMKDINDKSLTLGMTEAAKLLNKQLERGKIDGLKLAGVISTIHPTLDYAGFDRVDIVVEAVVENPKVKKAVLAETEQKVRQDTVLASNTSTIPISELANALERPENFCGMHFFNPVHRMPLVEIIRGEKSSDETIAKVVAWASKMGKTPIVVNDCPGFFVNRVLFPYFAGFSQLLRDGADFRKIDKVMEKQFGWPMGPAYLLDVVGIDTAHHAQAVMAAGFPQRMQKDYRDAIDALFDANRFGQKNGLGFWRYKEDSKGKPKKEEDAAVEDLLAEVSQPKRDFSEEEIIARMMIPMVNEVVRCLEEGIIATPAEADMALVYGLGFPPFHGGAFRWLDTLGSAKYLDMAQQYQHLGPLYEVPEGLRNKARHNEPYYPPVEPARPVGDLKTA,4.12 ± 0.27,3.24 ± 0.056,3.02 ± 0.12,3.8 ± 0.82,3.27 ± 0.31,2.93 ± 0.14,4.89 ± 0.061,8.047 ± 0.056,3.34 ± 0.46,4.71 ± 0.23,5.3 ± 0.11,9.82 ± 0.77
